Assay results as given in patent US20260098059A1 (ENDOMET BIOSCIENCES, published 2026).
Several values for one entry are separate records, joined by “and”; a condition that tells them apart may be missing. Equal values may be shown once. Bridges are numbered along the chain shown (N, C = ends). [ ]: non-standard residue; d: D form. The star is where a group is joined. N3 = N-terminal azide group, clicked with Pra; NMeW = CN[C@@H](Cc1c[nH]c2ccccc12)C(=O)O; Stearoyl = CCCCCCCCCCCCCCCCCC(=O)*; Palmitoyl = CCCCCCCCCCCCCCCC(=O)*; αMeV = CC(C)[C@](C)(N)C(=O)O; αMeS = C[C@](N)(CO)C(=O)O; Pra = C#CC[C@H](N)C(=O)O; GABA = NCCCC(=O)O; βAla = NCCC(=O)O; Sar = CNCC(=O)O

T1: β-catenin (UniProt P35222 134-665, limits assumed, biotinylated in the SPR and plate assays)
T1 sequence (looked up): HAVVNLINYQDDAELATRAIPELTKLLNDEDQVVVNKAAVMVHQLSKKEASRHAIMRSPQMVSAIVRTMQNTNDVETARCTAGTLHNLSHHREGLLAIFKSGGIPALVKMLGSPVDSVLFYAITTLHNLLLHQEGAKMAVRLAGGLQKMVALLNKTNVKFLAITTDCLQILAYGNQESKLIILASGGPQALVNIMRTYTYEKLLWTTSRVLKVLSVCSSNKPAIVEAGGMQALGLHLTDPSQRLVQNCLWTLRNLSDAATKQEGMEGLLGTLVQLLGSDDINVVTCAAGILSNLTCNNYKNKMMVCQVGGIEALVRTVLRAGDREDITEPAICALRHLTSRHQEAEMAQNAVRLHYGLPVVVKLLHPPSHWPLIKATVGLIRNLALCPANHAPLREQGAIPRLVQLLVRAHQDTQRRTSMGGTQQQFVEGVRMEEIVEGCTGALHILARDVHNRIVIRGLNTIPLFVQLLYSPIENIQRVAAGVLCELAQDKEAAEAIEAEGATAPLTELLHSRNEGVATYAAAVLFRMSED

B1: SEQ ID NO: 181 (peptide)
peptide: KWFLICEWG
HELM: PEPTIDE1{K.W.F.L.I.C.E.W.G}$PEPTIDE1,PEPTIDE1,1:R3-7:R3$$$V2.0
SMILES: CC[C@H](C)[C@@H]1NC(=O)[C@H](CC(C)C)NC(=O)[C@H](Cc2ccccc2)NC(=O)[C@H](Cc2c[nH]c3ccccc23)NC(=O)[C@@H](N)CCCCNC(=O)CC[C@@H](C(=O)N[C@@H](Cc2c[nH]c3ccccc23)C(=O)NCC(=O)O)NC(=O)[C@H](CS)NC1=O
B2: SEQ ID NO: 173 (peptide)
peptide: KWFLICEWG
HELM: PEPTIDE1{K.W.F.L.I.C.E.W.G}$PEPTIDE1,PEPTIDE1,1:R3-7:R3$$$V2.0
SMILES: CC[C@H](C)[C@@H]1NC(=O)[C@H](CC(C)C)NC(=O)[C@H](Cc2ccccc2)NC(=O)[C@H](Cc2c[nH]c3ccccc23)NC(=O)[C@@H](N)CCCCNC(=O)CC[C@@H](C(=O)N[C@@H](Cc2c[nH]c3ccccc23)C(=O)NCC(=O)O)NC(=O)[C@H](CS)NC1=O
B3: SEQ ID NO: 391 (peptide)
peptide: Stearoyl-[βAla]W[NMeW]E[αMeS]ILDEH[αMeV]QRVWG-OH
SMILES: CCCCCCCCCCCCCCCCCC(=O)NCCC(=O)N[C@@H](Cc1c[nH]c2ccccc12)C(=O)N(C)[C@@H](Cc1c[nH]c2ccccc12)C(=O)N[C@@H](CCC(=O)O)C(=O)N[C@@](C)(CO)C(=O)N[C@H](C(=O)N[C@@H](CC(C)C)C(=O)N[C@@H](CC(=O)O)C(=O)N[C@@H](CCC(=O)O)C(=O)N[C@@H](Cc1c[nH]cn1)C(=O)N[C@](C)(C(=O)N[C@@H](CCC(N)=O)C(=O)N[C@@H](CCCNC(=N)N)C(=O)N[C@H](C(=O)N[C@@H](Cc1c[nH]c2ccccc12)C(=O)NCC(=O)O)C(C)C)C(C)C)[C@@H](C)CC
B4: SEQ ID NO: 177 (peptide)
peptide: DMWFLICFWKG
HELM: PEPTIDE1{D.M.W.F.L.I.C.F.W.K.G}$PEPTIDE1,PEPTIDE1,1:R3-10:R3$$$V2.0
SMILES: CC[C@H](C)[C@@H]1NC(=O)[C@H](CC(C)C)NC(=O)[C@H](Cc2ccccc2)NC(=O)[C@H](Cc2c[nH]c3ccccc23)NC(=O)[C@H](CCSC)NC(=O)[C@@H](N)CC(=O)NCCCC[C@@H](C(=O)NCC(=O)O)NC(=O)[C@H](Cc2c[nH]c3ccccc23)NC(=O)[C@H](Cc2ccccc2)NC(=O)[C@H](CS)NC1=O
B5: SEQ ID NO: 178 (peptide)
peptide: DWFLICAWKG
HELM: PEPTIDE1{D.W.F.L.I.C.A.W.K.G}$PEPTIDE1,PEPTIDE1,1:R3-9:R3$$$V2.0
SMILES: CC[C@H](C)[C@@H]1NC(=O)[C@H](CC(C)C)NC(=O)[C@H](Cc2ccccc2)NC(=O)[C@H](Cc2c[nH]c3ccccc23)NC(=O)[C@@H](N)CC(=O)NCCCC[C@@H](C(=O)NCC(=O)O)NC(=O)[C@H](Cc2c[nH]c3ccccc23)NC(=O)[C@H](C)NC(=O)[C@H](CS)NC1=O
B6: SEQ ID NO: 180 (peptide)
peptide: KMWFLICEWG
HELM: PEPTIDE1{K.M.W.F.L.I.C.E.W.G}$PEPTIDE1,PEPTIDE1,1:R3-8:R3$$$V2.0
SMILES: CC[C@H](C)[C@@H]1NC(=O)[C@H](CC(C)C)NC(=O)[C@H](Cc2ccccc2)NC(=O)[C@H](Cc2c[nH]c3ccccc23)NC(=O)[C@H](CCSC)NC(=O)[C@@H](N)CCCCNC(=O)CC[C@@H](C(=O)N[C@@H](Cc2c[nH]c3ccccc23)C(=O)NCC(=O)O)NC(=O)[C@H](CS)NC1=O
B7: SEQ ID NO: 208 (peptide)
peptide: KWFEISFWG
HELM: PEPTIDE1{K.W.F.E.I.S.F.W.G}$PEPTIDE1,PEPTIDE1,1:R3-4:R3$$$V2.0
SMILES: CC[C@H](C)[C@H](NC(=O)[C@@H]1CCC(=O)NCCCC[C@H](N)C(=O)N[C@@H](Cc2c[nH]c3ccccc23)C(=O)N[C@@H](Cc2ccccc2)C(=O)N1)C(=O)N[C@@H](CO)C(=O)N[C@@H](Cc1ccccc1)C(=O)N[C@@H](Cc1c[nH]c2ccccc12)C(=O)NCC(=O)O
B8: SEQ ID NO: 31 (peptide)
peptide: KMSRMWYLISFW
HELM: PEPTIDE1{K.M.S.R.M.W.Y.L.I.S.F.W}$PEPTIDE1,PEPTIDE1,1:R3-12:R2$$$V2.0
SMILES: CC[C@H](C)[C@@H]1NC(=O)[C@H](CC(C)C)NC(=O)[C@H](Cc2ccc(O)cc2)NC(=O)[C@H](Cc2c[nH]c3ccccc23)NC(=O)[C@H](CCSC)NC(=O)[C@H](CCCNC(=N)N)NC(=O)[C@H](CO)NC(=O)[C@H](CCSC)NC(=O)[C@@H](N)CCCCNC(=O)[C@H](Cc2c[nH]c3ccccc23)NC(=O)[C@H](Cc2ccccc2)NC(=O)[C@H](CO)NC1=O
B9: SEQ ID NO: 394 (peptide)
peptide: Stearoyl-[βAla]W[NMeW]E[αMeS]ILDEH[αMeV]QRVW-OH
SMILES: CCCCCCCCCCCCCCCCCC(=O)NCCC(=O)N[C@@H](Cc1c[nH]c2ccccc12)C(=O)N(C)[C@@H](Cc1c[nH]c2ccccc12)C(=O)N[C@@H](CCC(=O)O)C(=O)N[C@@](C)(CO)C(=O)N[C@H](C(=O)N[C@@H](CC(C)C)C(=O)N[C@@H](CC(=O)O)C(=O)N[C@@H](CCC(=O)O)C(=O)N[C@@H](Cc1c[nH]cn1)C(=O)N[C@](C)(C(=O)N[C@@H](CCC(N)=O)C(=O)N[C@@H](CCCNC(=N)N)C(=O)N[C@H](C(=O)N[C@@H](Cc1c[nH]c2ccccc12)C(=O)O)C(C)C)C(C)C)[C@@H](C)CC
B10: SEQ ID NO: 206 (peptide)
peptide: KWLLISAWD
HELM: PEPTIDE1{K.W.L.L.I.S.A.W.D}$PEPTIDE1,PEPTIDE1,1:R3-9:R3$$$V2.0
SMILES: CC[C@H](C)[C@@H]1NC(=O)[C@H](CC(C)C)NC(=O)[C@H](CC(C)C)NC(=O)[C@H](Cc2c[nH]c3ccccc23)NC(=O)[C@@H](N)CCCCNC(=O)C[C@@H](C(=O)O)NC(=O)[C@H](Cc2c[nH]c3ccccc23)NC(=O)[C@H](C)NC(=O)[C@H](CO)NC1=O
B11: SEQ ID NO: 205 (peptide)
peptide: KWXLISAWD
HELM: PEPTIDE1{K.W.[CC(C)(C)[C@H](N[*:1])C(=O)[*:2]].L.I.S.A.W.D}$PEPTIDE1,PEPTIDE1,1:R3-9:R3$$$V2.0
SMILES: CC[C@H](C)[C@@H]1NC(=O)[C@H](CC(C)C)NC(=O)[C@H](C(C)(C)C)NC(=O)[C@H](Cc2c[nH]c3ccccc23)NC(=O)[C@@H](N)CCCCNC(=O)C[C@@H](C(=O)O)NC(=O)[C@H](Cc2c[nH]c3ccccc23)NC(=O)[C@H](C)NC(=O)[C@H](CO)NC1=O

Molecular target: T1, β-catenin
Test: cell-based or functional assay

Binder | Proliferation IC50, Wnt dependent cells [µM] | Wnt Reporter EC50 | Proliferation IC50, Endo cells [µM]
Stearoyl-W[NMeW]E[αMeS]ILDEH[αMeV]QRVWG-OH [SEQ ID NO: 390] | 4.7 | > 7.5 µM and ≤ 15 µM | –
B1 | – | > 30 µM | –
Palmitoyl-W[NMeW]E[αMeS]ILDEH[αMeV]QRVW-OH [SEQ ID NO: 397] | – | > 7.5 µM and ≤ 15 µM | –
B2 | – | > 30 µM | –
{Stearoyl-GABA}-W[NMeW]E[αMeS]ILDEH[αMeV]QRVW-OH [SEQ ID NO: 395] | 6.8 | > 7.5 µM and ≤ 15 µM | –
B3 | 4.8 | ≤ 7.5 µM | –
Palmitoyl-GW[NMeW]E[αMeS]ILDEH[αMeV]QRVW-OH [SEQ ID NO: 398] | – | > 7.5 µM and ≤ 15 µM | –
B4 | – | > 7.5 µM and ≤ 15 µM | –
B5 | – | ≤ 7.5 µM | –
KWFLICFWEG (cyclo-H2N-K(G*)WFLICFWE*G-COOH) [SEQ ID NO: 174] | – | > 7.5 µM and ≤ 15 µM | –
B6 | – | ≤ 7.5 µM | –
B7 | – | > 7.5 µM and ≤ 15 µM | –
H-MSRMWFLISFWEG-OH [SEQ ID NO: 57] | – | ≤ 7.5 µM | –
H-MSRMWFLISFWRG-OH [SEQ ID NO: 58] | – | > 22.5 µM and ≤ 30 µM | –
Palmitoyl-W[NMeW]E[αMeS]ILDEH[αMeV]QRVWG-OH [SEQ ID NO: 396] | 2.9 | > 7.5 µM and ≤ 15 µM | 15
B8 | – | > 30 µM | –
B9 | – | > 7.5 µM and ≤ 15 µM | –
B10 | – | > 15 µM and ≤ 22.5 µM | –
H-MAFLISFWG-OH [SEQ ID NO: 210] | – | ≤ 7.5 µM | –
H-MWFLICAWG-OH [SEQ ID NO: 211] | – | ≤ 7.5 µM | –
Ac-MWILISFWG-OMe [SEQ ID NO: 222] | – | > 7.5 µM and ≤ 15 µM | –
H-MWFLICFW[Sar]-OH [SEQ ID NO: 213] | – | ≤ 7.5 µM | –
N3-WESILDEHVQRVW[Pra]-NH2 (triazole N-14) [SEQ ID NO: 33] | – | > 30 µM | –
H-MIRMWFLICAWG-OH [SEQ ID NO: 166] | – | > 30 µM | –
{Stearoyl-GABA}-W[NMeW]E[αMeS]ILDEH[αMeV]QRVWG-OH [SEQ ID NO: 392] | – | ≤ 7.5 µM | –
H-[2Aoc]WFLICFWG-OH [SEQ ID NO: 139] | – | > 30 µM | –
B11 | – | > 30 µM | –
